{"source": "paper PMC3443293", "about": "(Nature structural & molecular biology, 2012)", "binders": {"B1": {"name": "human nectin-1 ectodomain (D1-D3) (domain or fragment)", "chain": "QVVQVNDSMYGFIGTDVVLHCSFANPLPSVKITQVTWQKSTNGSKQNVAIYNPSMGVSVLAPYRERVEFLRPSFTDGTIRLSRLELEDEGVYICEFATFPTGNRESQLNLTVMAKPTNWIEGTQAVLRAKKGQDDKVLVATCTSANGKPPSVVSWETRLKGEAEYQEIRNPNGTVTVISRYRLVPSREAHQQSLACIVNYHMDRFKESLTLNVQYEPEVTIEGFDGNWYLQRMDVKLTCKADANPPATEYHWTTLNGSLPKGVEAQNRTLFFKGPINYSLAGTYICEATNPIGTRSGQVEVNITEFP", "modifications": "natively glycosylated (N-linked glycans)"}}, "key": {"AUC": {"target": "the molecule itself", "assay": "AUC"}, "[1]": {"target": "human nectin-3 ectodomain (D1-D3) (human, UniProt Q9NQS3 58-359, natively glycosylated (N-linked glycans))", "assay": "SPR"}, "[2]": {"target": "B1", "assay": "AUC"}, "crystal structure": {"target": "the molecule itself", "assay": "crystal structure"}}, "data": [{"binder": "mouse nectin-2 D1-2 fragment (domain or fragment, natively glycosylated (N-linked glycans)) QDVRVRVLPEVRGRLGGTVELPCHLLPPTTERVSQVTWQRLDGTVVAAFHPSFGVDFPNSQFSKDRLSFVRARPETNADLRDATLAFRGLRVEDEGNYTCEFATFPNGTRRGVTWLRVIAQPENHAEAQEVTIGPQSVAVARCVSTGGRPPARITWISSLGGEAKDTQEPGIQAGTVTIISRYSLVPVGRADGVKVTCRVEHESFEEPILLPVTLSVRY", "values": [{"measurement": "Kd", "setting": "AUC", "result": 7.62, "unit": "µM"}, {"measurement": "stoichiometry N", "setting": "AUC", "result": 2}]}, {"binder": "mouse nectin-2 ectodomain (D1-D3) (domain or fragment, natively glycosylated) QDVRVRVLPEVRGRLGGTVELPCHLLPPTTERVSQVTWQRLDGTVVAAFHPSFGVDFPNSQFSKDRLSFVRARPETNADLRDATLAFRGLRVEDEGNYTCEFATFPNGTRRGVTWLRVIAQPENHAEAQEVTIGPQSVAVARCVSTGGRPPARITWISSLGGEAKDTQEPGIQAGTVTIISRYSLVPVGRADGVKVTCRVEHESFEEPILLPVTLSVRYPPEVSISGYDDNWYLGRSEAILTCDVRSNPEPTDYDWSTTSGVFPASAVAQGSQLLVHSVDRMVNTTFICTATNAVGTGRAEQVILVRESP", "values": [{"measurement": "Kd", "setting": "AUC", "result": 1.09, "unit": "µM"}, {"measurement": "stoichiometry N", "setting": "AUC", "result": 2}]}, {"binder": "mouse nectin-1 ectodomain (D1-D3) (domain or fragment, natively glycosylated) QVVQVNDSMYGFIGTDVVLHCSFANPLPSVKITQVTWQKASNGSKQNMAIYNPTMGVSVLPPYEKRVEFLRPSFIDGTIRLSGLELEDEGMYICEFATFPTGNRESQLNLTVMAKPTNWIEGTRAVLRARKGQDDKVLVATCTSANGKPPSAVSWETRLKGEAEYQEIRNPNGTVTVISRYRLVPSREAHRQSLACIVNYHLDRFRESLTLNVQYEPEVTIEGFDGNWYLQRTDVKLTCKADANPPATEYHWTTLNGSLPKGVEAQNRTLFFRGPITYSLAGTYICEATNPIGTRSGQVEVNITEFP", "values": [{"measurement": "Kd", "setting": "AUC", "result": 22.6, "unit": "µM"}, {"measurement": "stoichiometry N", "setting": "AUC", "result": 2}]}, {"binder": "human nectin-2 ectodomain (D1-D3) (domain or fragment, natively glycosylated) QDVRVQVLPEVRGQLGGTVELPCHLLPPVPGLYISLVTWQRPDAPANHQNVAAFHPKMGPSFPSPKPGSERLSFVSAKQSTGQDTEAELQDATLALHGLTVEDEGNYTCEFATFPKGSVRGMTWLRVIAKPKNQAEAQKVTFSQDPTTVALCISKEGRPPARISWLSSLDWEAKETQVSGTLAGTVTVTSRFTLVPSGRADGVTVTCKVEHESFEEPALIPVTLSVRYPPEVSISGYDDNWYLGRTDATLSCDVRSNPEPTGYDWSTTSGTFPTSAVAQGSQLVIHAVDSLFNTTFVCTVTNAVGMGRAEQVIFVRETP", "values": [{"measurement": "binding result", "setting": "[1]", "result": "binds"}, {"measurement": "Kd", "setting": "AUC", "result": 0.392, "unit": "µM"}, {"measurement": "stoichiometry N", "setting": "AUC", "result": 2}]}, {"binder": "human nectin-4 ectodomain (D1-D3) (domain or fragment, natively glycosylated) GELETSDVVTVVLGQDAKLPCFYRGDSGEQVGQVAWARVDAGEGAQELALLHSKYGLHVSPAYEGRVEQPPPPRNPLDGSVLLRNAVQADEGEYECRVSTFPAGSFQARLRLRVLVPPLPSLNPGPALEEGQGLTLAASCTAEGSPAPSVTWDTEVKGTTSSRSFKHSRSAAVTSEFHLVPSRSMNGQPLTCVVSHPGLLQDQRITHILHVSFLAEASVRGLEDQNLWHIGREGAMLKCLSEGQPPPSYNWTRLDGPLPSGVRVDGDTLGFPPLTTEHSGIYVCHVSNEFSSRDSQVTVDVLDPQ", "values": [{"measurement": "binding result", "setting": "[2]", "result": "binds"}, {"measurement": "Kd", "setting": "AUC", "result": 153, "unit": "µM"}, {"measurement": "stoichiometry N", "setting": "AUC", "result": 2}]}, {"binder": "human nectin-4 D1-2 fragment (domain or fragment) GELETSDVVTVVLGQDAKLPCFYRGDSGEQVGQVAWARVDAGEGAQELALLHSKYGLHVSPAYEGRVEQPPPPRNPLDGSVLLRNAVQADEGEYECRVSTFPAGSFQARLRLRVLVPPLPSLNPGPALEEGQGLTLAASCTAEGSPAPSVTWDTEVKGTTSSRSFKHSRSAAVTSEFHLVPSRSMNGQPLTCVVSHPGLLQDQRITHILHVS", "values": [{"measurement": "binding result", "setting": "crystal structure", "result": "binds"}]}, {"binder": "mouse nectin-4 ectodomain (D1-D3) (domain or fragment, natively glycosylated) GELETSDVVTVVLGQDAKLPCFYRGDPDEQVGQVAWARVDPNEGIRELALLHSKYGLHVNPAYEDRVEQPPPPRDPLDGSVLLRNAVQADEGEYECRVSTFPAGSFQARMRLRVLVPPLPSLNPGPPLEEGQGLTLAASCTAEGSPAPSVTWDTEVKGTQSSRSFTHPRSAAVTSEFHLVPSRSMNGQPLTCVVSHPGLLQDRRITHTLQVAFLAEASVRGLEDQNLWQVGREGATLKCLSEGQPPPKYNWTRLDGPLPSGVRVKGDTLGFPPLTTEHSGVYVCHVSNELSSRDSQVTVEVLDPEDPG", "values": [{"measurement": "Kd", "setting": "AUC", "result": 278, "unit": "µM"}, {"measurement": "stoichiometry N", "setting": "AUC", "result": 2}]}, {"binder": "human nectin-1 ectodomain (D1-D3) F129D (domain or fragment, natively glycosylated) QVVQVNDSMYGFIGTDVVLHCSFANPLPSVKITQVTWQKSTNGSKQNVAIYNPSMGVSVLAPYRERVEFLRPSFTDGTIRLSRLELEDEGVYICEFATDPTGNRESQLNLTVMAKPTNWIEGTQAVLRAKKGQDDKVLVATCTSANGKPPSVVSWETRLKGEAEYQEIRNPNGTVTVISRYRLVPSREAHQQSLACIVNYHMDRFKESLTLNVQYEPEVTIEGFDGNWYLQRMDVKLTCKADANPPATEYHWTTLNGSLPKGVEAQNRTLFFKGPINYSLAGTYICEATNPIGTRSGQVEVNITEFP", "values": [{"measurement": "Kd", "setting": "AUC", "result": 820, "unit": "µM"}, {"measurement": "stoichiometry N", "setting": "AUC", "result": 2}]}, {"binder": "B1", "values": [{"measurement": "binding result", "setting": "[1]", "result": "binds"}, {"measurement": "Kd", "setting": "AUC", "result": 17.5, "unit": "µM"}, {"measurement": "stoichiometry N", "setting": "AUC", "result": 2}]}]}
